Target: Wildtype His6-Gαi1 (UniProt P63096 1-354)
Assay: SPR

Chain of Wildtype His6-Gαi1 (P63096 whole entry): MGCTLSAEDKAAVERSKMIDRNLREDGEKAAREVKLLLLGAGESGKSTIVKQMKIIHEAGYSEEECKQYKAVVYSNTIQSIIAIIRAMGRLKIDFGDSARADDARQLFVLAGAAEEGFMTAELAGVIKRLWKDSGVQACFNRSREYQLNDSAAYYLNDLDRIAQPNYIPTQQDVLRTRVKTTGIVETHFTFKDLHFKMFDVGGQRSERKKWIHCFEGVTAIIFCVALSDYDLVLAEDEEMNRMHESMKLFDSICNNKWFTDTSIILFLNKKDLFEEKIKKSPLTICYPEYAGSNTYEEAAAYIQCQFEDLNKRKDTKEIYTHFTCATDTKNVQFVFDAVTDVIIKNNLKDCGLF

B1: RGS21 (regulator of G protein signaling-21), wildtype, His6 tag cleaved (natural protein, human, UniProt Q2M5E4 1-152, looked up)
chain: MPVKCCFYRSPTAETMTWSENMDTLLANQAGLDAFRIFLKSEFSEENVEFWLACEDFKKTKNADKIASKAKMIYSEFIEADAPKEINIDFGTRDLISKNIAEPTLKCFDEAQKLIYCLMAKDSFPRFLKSEIYKKLVNSQQVPNHKKWLPFL
Which Kd does the source give for B1 here?
The Kd was 57 nM.
